Test results from patent US20250099540A1 (INSERM INSTITUT NATIONAL DE LA SANT ET DE LA RECHERCHE M …, published 2025).

Biological target: T1, purified integrin αIIbβ3 (R&D Systems #7148-A2-025) (UniProt P08514 32-993; P05106 27-718)
T1 construct: One protein preparation was tested in two states; also called GPIIb-IIIa; CD41/CD61
Test: SPR single-cycle kinetics, sEng-Strep on SA chip, activated Ca2+/Mn2+-loaded integrin as analyte, 25° C.; apparent value; activated Ca2+/Mn2+-loaded integrin αIIbβ3 as analyte
Protocol: The association between sEng-Strep-tag® II and integrin αIIbβ3 was analyzed by surface plasmon resonance (SPR) on a streptavidin (SA) biosensor (Cytiva) at 25° C. First, we immobilized resonance units (RU) of sEng-Strep-tag® II onto the test flow cell of a SA chip through the C-terminal StrepII-tag to provide a sEng concentration on the surface of ˜10 μM. The reference flow cell was not modified. […] Polysorbate 20 (PS20), either supplemented with 1 mM MnCl2 and 1 mM CaCl2 or after extensive dialysis against EDTA to remove residual divalent cations in the protein preparation. Integrin αIIbβ3 (25 μg per experiment) was resuspended to 0.2 mg/ml (˜1 μM) in the appropriate running buffer before use. Analysis was performed with the BiaEvaluation version 3.0.2 software (Cytiva) and the Anabel webserver.
To investigate this interaction, we analyzed the association between sEng-Strep-tag® II (sEng-Strep) and integrin αIIbβ3 by surface plasmon resonance (SPR) on a streptavidin (SA) biosensor (Cytiva) at 25° C. using single-cycle kinetics. When non-activated integrin αIIbβ3 was flowed over surface-immobilized sEng-Strep, no binding was detected (FIG. 5).

Kd: < 9 nM
koff: < 0.008 s⁻¹
B1: sEng-Strep-tag II (streptavidin-tagged construct of soluble endoglin) (receptor, human, UniProt P17813 26-586, looked up)
chain: ETVHCDLQPVGPERGEVTYTTSQVSKGCVAQAPNAILEVHVLFLEFPTGPSQLELTLQASKQNGTWPREVLLVLSVNSSVFLHLQALGIPLHLAYNSSLVTFQEPPGVNTTELPSFPKTQILEWAAERGPITSAAELNDPQSILLRLGQAQGSLSFCMLEASQDMGRTLEWRPRTPALVRGCHLEGVAGHKEAHILRVLPGHSAGPRTVTVKVELSCAPGDLDAVLILQGPPYVSWLIDANHNMQIWTTGEYSFKIFPEKNIRGFKLPDTPQGLLGEARMLNASIVASFVELPLASIVSLHASSCGGRLQTSPAPIQTTPPKDTCSPELLMSLIQTKCADDAMTLVLKKELVAHLKCTITGLTFWDPSCEAEDRGDKFVLRSAYSSCGMQVSASMISNEAVVNILSSSSPQRKKVHCLNMDSLSFQLGLYLSPHFLQASNTIEPGQQSFVQVRVSPSVSEFLLQLDSCHLDLGPEGGTVELIQGRAAKGNCVSLLSPSPEGDPRFSFLLHFYTVPIPKTGTLSCTVALRPKTGSQDQEVHRTVFMRLNIISPDLSGCTSKG
notes: extracellular domain; Immobilised on a streptavidin (SA) chip through the C-terminal StrepII-tag; not shown: C-terminal Strep-tag II
